Molecular target: SNAP-Protein G
Experiment: titration on hydrogel beads, read by flow cytometry of the beads; SNAP-Protein G covalently immobilised on PHD beads (20 um, 50 uM BG); titration series of fluorescently labelled mouse IgG2b at room temperature with rolling for the indicated times, then washed; mean of triplicates fitted to fluorescence = (fluorescencemax x [IgG])/(KD + [IgG])

Kd: 0.0301 µM
Substance: fluorescently labeled mouse IgG2b (antibody)

From PMC9413441
